Each block holds one molecule with its values, some of them ahead of it.
Assays:
[1] = target: PCNA (Saccharomyces cerevisiae) (UniProt P15873); assay: surface plasmon resonance; conditions: cited from earlier work
[2] = target: AF488-labeled PCNA (UniProt P15873); assay: other fluorescence titration; PCNA opening (unquenching) assay: fluorescence of 10 nM PCNA-AF488_2 at 517 nm, increasing RFC, 0.5 mM ATPγS in place of ATP; assay buffer; equilibrium, quadratic fit
[3] = target: MDCC labeled PCNA (UniProt P15873); assay: other fluorescence titration; fluorescence intensity of 10 nM PCNA-MDCC at 470 nm, increasing RFC, 0.5 mM ATPγS in place of ATP; assay buffer; equilibrium, quadratic fit
[4] = target: AF488-labeled PCNA (UniProt P15873); assay: other fluorescence titration; PCNA opening (unquenching) assay: fluorescence of 10 nM PCNA-AF488_2 at 517 nm, increasing RFC, 0.5 mM ATP; assay buffer; equilibrium, quadratic fit
[5] = target: MDCC labeled PCNA (UniProt P15873); assay: other fluorescence titration; fluorescence intensity of 10 nM PCNA-MDCC at 470 nm, increasing RFC, 0.5 mM ATP; assay buffer 30 mM HEPES-NaOH pH 7.5, 150 mM NaCl, 10 mM MgCl2, 0.5 mM EDTA, 2 mM DTT, 2% glycerol; equilibrium, quadratic fit
[6] = target: AF488-labeled PCNA (UniProt P15873)
[7] = target: AF488-labeled PCNA (UniProt P15873); remark: listed apart in the source
[8] = target: RFC WB-EQ (Walker B Glu to Gln quadruple mutant);PCNA (Saccharomyces cerevisiae;Saccharomyces …, UniProt P38630;P40348;P38629;P40339;P38251;P15873 284-861;1-353;1-340;1-323;1-354;1-258, E425Q;E141Q;E118Q;E115Q|); assay: fluorescence anisotropy; 0.5 mM ATPgS; 2 uM PCNA; 20 nM p/t DNA-RhX, 0.5 mM ATPgS, varied RFC, with or without 2 uM PCNA; buffer, salt, pH and temperature not in the material (Section 3.1 text missing); conditions: protein: recombinant;recombinant; tags: Rfc1 N-terminal 6xHis and kinase recognition motif replacing residues 1-283;; copies: 1;1;1;1;1;3; label: X-rhodamine (RhX) on 5' end of template; primer-template: 26 bp duplex with 34 nt 5' template overhang
[9] = target: RFC WB-EA (Walker B Glu to Ala quadruple mutant);PCNA (Saccharomyces cerevisiae;Saccharomyces …, UniProt P38630;P40348;P38629;P40339;P38251;P15873 284-861;1-353;1-340;1-323;1-354;1-258, E425A;E141A;E118A;E115A|); assay: as above; conditions: protein: recombinant;recombinant; tags: Rfc1 N-terminal 6xHis and kinase recognition motif replacing residues 1-283;; copies: 1;1;1;1;1;3; label: X-rhodamine (RhX) on 5' end of template; primer-template: 26 bp duplex with 34 nt 5' template overhang
[10] = target: RFC clamp loader (WT; Rfc1 N-terminal truncation);PCNA (Saccharomyces cerevisiae;Saccharomyces …, UniProt P38630;P40348;P38629;P40339;P38251;P15873 284-861;1-353;1-340;1-323;1-354;1-258, |); assay: as above; conditions: protein: recombinant;recombinant; tags: Rfc1 N-terminal 6xHis and kinase recognition motif replacing residues 1-283;; copies: 1;1;1;1;1;3; label: X-rhodamine (RhX) on 5' end of template; primer-template: 26 bp duplex with 34 nt 5' template overhang
[11] = target: RFC WB-EA (Walker B Glu to Ala quadruple mutant) (Saccharomyces cerevisiae, UniProt P38630;P40348;P38629;P40339;P38251 284-861;1-353;1-340;1-323;1-354, E425A;E141A;E118A;E115A); assay: fluorescence anisotropy; 0.5 mM ATPgS; no PCNA; 20 nM p/t DNA-RhX, 0.5 mM ATPgS, varied RFC, with or without 2 uM PCNA; buffer, salt, pH and temperature not in the material (Section 3.1 text missing); conditions: protein: recombinant; tags: Rfc1 N-terminal 6xHis and kinase recognition motif replacing residues 1-283; copies: 1;1;1;1;1; label: X-rhodamine (RhX) on 5' end of template; primer-template: 26 bp duplex with 34 nt 5' template overhang
[12] = target: RFC WB-EQ (Walker B Glu to Gln quadruple mutant) (Saccharomyces cerevisiae, UniProt P38630;P40348;P38629;P40339;P38251 284-861;1-353;1-340;1-323;1-354, E425Q;E141Q;E118Q;E115Q); assay: as above; conditions: protein: recombinant; tags: Rfc1 N-terminal 6xHis and kinase recognition motif replacing residues 1-283; copies: 1;1;1;1;1; label: X-rhodamine (RhX) on 5' end of template; primer-template: 26 bp duplex with 34 nt 5' template overhang
[13] = target: RFC clamp loader (WT; Rfc1 N-terminal truncation) (Saccharomyces cerevisiae, UniProt P38630;P40348;P38629;P40339;P38251 284-861;1-353;1-340;1-323;1-354); assay: as above; conditions: protein: recombinant; tags: Rfc1 N-terminal 6xHis and kinase recognition motif replacing residues 1-283; copies: 1;1;1;1;1; label: X-rhodamine (RhX) on 5' end of template; primer-template: 26 bp duplex with 34 nt 5' template overhang

PCNA (Saccharomyces cerevisiae), sequence (P15873 whole entry): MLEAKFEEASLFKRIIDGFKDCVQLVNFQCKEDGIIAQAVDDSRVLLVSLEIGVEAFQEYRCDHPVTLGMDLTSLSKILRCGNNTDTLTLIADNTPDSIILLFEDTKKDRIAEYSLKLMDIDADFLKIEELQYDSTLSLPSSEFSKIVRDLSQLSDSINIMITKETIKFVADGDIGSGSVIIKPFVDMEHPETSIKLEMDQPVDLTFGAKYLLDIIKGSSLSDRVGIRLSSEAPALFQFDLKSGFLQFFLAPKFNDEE

Molecule: Replication factor C (from UniProt P38630)
Kd [1]: 1.3 nM

Kd [2]: 5.8 nM | Kd [3]: 13 nM | Kd [4]: 11 nM | Kd [5]: 7.1 nM | PCNA opening: increase of AF488 fluorescence of 10 nM PCNA-AF488 2 at saturating RFC, 0.5 mM ATPγS [6]: 1.5 fold | PCNA opening: increase of AF488 fluorescence of 10 nM PCNA-AF488 2 at saturating RFC, 0.5 mM ATP [7]: 2 fold
Molecule: wild-type replication factor C (RFC) complex, Rfc1 lacking its first 283 residues (from UniProt P38630 284-861; P40348 1-353; P38629 1-340; P40339 1-323; P38251 1-354)

B1: p/t DNA-RhX (26/60-mer primed template) (dsDNA)
DNA 1: TTCAGGTCAGAAGGGTTCTATCTCTGTTGGCCAGAATGTCCCTTTTATTACTGGTCGTGT
DNA 2: ACACGACCAGTAATAAAAGGGACATT
modifications: 5' C6 amino linker on the 60-mer template
Kd [8]: 460 ± 200 nM | Kd [9]: 1800 ± 700 nM | Kd [10]: 37 ± 13 nM | Kd [11]: 1060 ± 200 nM | Kd [12]: 690 ± 400 nM | Kd [13]: 91 ± 28 nM
